Experimental data from patent US20070004634A1 (published 2007).
Several values for one entry are separate records, joined by “and”; a condition that tells them apart may be missing. Equal entries are not always repeated. Where two headings read alike, the source gives them in different places. Positions of bridges follow the written chain, without caps; N, C: chain ends. No end group written: not given here. MBP = maltose binding protein (pMAL-c2)

Assays:
[1] = target: T1, IGF-1R on cells (MCF-7, MiaPaCa, FDC-P2 cells expressing human IGF-1R) (human, UniProt P08069 31-1367); assay: cell-based or functional assay
[2] = target: T2, His-tagged soluble recombinant human IGF-IR (srhIGF-1R-his) (human, UniProt P08069 31-935); assay: ALPHAScreen competition against b-hIGF-1 on srhIGF-1R-his
T2 construct: extracellular domain; Bought construct; not shown: His tag

[3] = target: T2, His-tagged soluble recombinant human …; assay: as above; remark: listed apart in the source
[4] = target: T1, IGF-1R on cells (MCF-7, MiaPaCa, FDC-P2 …); assay: cell-based or functional assay; remark: listed apart in the source
[5] = target: T1, IGF-1R on cells (MCF-7, MiaPaCa, FDC-P2 …); assay: cell-based or functional assay; remark: listed apart in the source
[6] = target: T2, His-tagged soluble recombinant human …; assay: ALPHAScreen competition against b-hIGF-1 on srhIGF-1R-his; remark: listed apart in the source
[7] = target: T3, soluble human insulin receptor-immunoglobulin heavy chain chimera (sIR-Fc) (human, UniProt P06213-2 28-944, limits assumed); assay: FP competition against FITC-RP9 on sIR-Fc
T3 construct: extracellular domain; not shown: immunoglobulin heavy chain constant domains
T3 sequence (P06213 other isoform, or with tags, fused parts or gaps mutant limits assumed): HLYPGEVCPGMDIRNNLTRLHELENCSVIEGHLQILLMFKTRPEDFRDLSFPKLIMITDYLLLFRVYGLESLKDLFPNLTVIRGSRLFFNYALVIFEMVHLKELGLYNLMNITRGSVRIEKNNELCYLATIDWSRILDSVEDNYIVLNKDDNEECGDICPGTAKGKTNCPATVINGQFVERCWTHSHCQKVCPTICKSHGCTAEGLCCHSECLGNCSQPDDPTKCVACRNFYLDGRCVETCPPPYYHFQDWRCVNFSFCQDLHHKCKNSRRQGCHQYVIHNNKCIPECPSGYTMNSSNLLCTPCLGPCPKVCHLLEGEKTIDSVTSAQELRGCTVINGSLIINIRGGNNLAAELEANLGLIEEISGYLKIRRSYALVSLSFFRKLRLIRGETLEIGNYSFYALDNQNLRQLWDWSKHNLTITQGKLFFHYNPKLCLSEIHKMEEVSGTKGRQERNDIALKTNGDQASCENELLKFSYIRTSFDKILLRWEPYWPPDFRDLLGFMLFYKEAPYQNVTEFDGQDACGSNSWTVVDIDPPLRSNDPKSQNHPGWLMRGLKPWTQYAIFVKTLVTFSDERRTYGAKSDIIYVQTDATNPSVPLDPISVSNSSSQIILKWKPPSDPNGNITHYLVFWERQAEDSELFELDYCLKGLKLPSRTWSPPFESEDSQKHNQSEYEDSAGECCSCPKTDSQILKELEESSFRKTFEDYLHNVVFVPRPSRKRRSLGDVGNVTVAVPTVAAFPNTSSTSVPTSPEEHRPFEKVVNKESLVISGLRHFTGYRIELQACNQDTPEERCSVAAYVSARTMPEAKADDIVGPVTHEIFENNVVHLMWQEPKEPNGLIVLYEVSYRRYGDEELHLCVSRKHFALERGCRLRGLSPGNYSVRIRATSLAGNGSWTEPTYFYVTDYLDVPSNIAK

[8] = target: T2, His-tagged soluble recombinant human …; assay: ALPHAScreen competition against b-hIGF-1 on srhIGF-1R-his; remark: listed apart in the source
[9] = target: T2, His-tagged soluble recombinant human …; assay: as above; remark: listed apart in the source
[10] = target: T1, IGF-1R on cells (MCF-7, MiaPaCa, FDC-P2 …); assay: cell-based or functional assay; remark: listed apart in the source
[11] = target: T1, IGF-1R on cells (MCF-7, MiaPaCa, FDC-P2 …); assay: cell-based or functional assay; remark: listed apart in the source
[12] = target: T2, His-tagged soluble recombinant human …; assay: ALPHAScreen competition against b-hIGF-1 on srhIGF-1R-his; remark: listed apart in the source
[13] = target: T1, IGF-1R on cells (MCF-7, MiaPaCa, FDC-P2 …); assay: cell-based or functional assay; remark: listed apart in the source
[14] = target: T4, soluble human insulin receptor-immunoglobulin heavy chain chimera (sIR-Fc; Bass et al., 1996) (human, UniProt P06213-2 28-944); assay: phage ELISA
T4 construct: extracellular domain; also called soluble IR (Bass construct); Eu3+-sIR-Fc; not shown: immunoglobulin heavy chain constant domains per Bass et al., 1996
T4 sequence (P06213 other isoform, or with tags, fused parts or gaps mutant): as the sequence (P06213 other isoform, or with tags, fused parts or gaps mutant limits assumed) above

[15] = target: T5, soluble IGF-1R (recombinant human IGF-1R extracellular domain, R&D Systems Cat. # 391-GR/CF) (human, UniProt P08069 31-935); assay: phage ELISA
T5 construct: extracellular domain; LANCE Eu3+-labelled in the TR-FRET assays; also called sIGF-1R; rhIGF-1R

[16] = target: T6, human insulin receptor (HIR) (human, UniProt P06213-2 28-1370, limits assumed); assay: HIR binding assay of MBP fusions (method not restated)
T6 sequence (P06213 other isoform, or with tags, fused parts or gaps limits assumed): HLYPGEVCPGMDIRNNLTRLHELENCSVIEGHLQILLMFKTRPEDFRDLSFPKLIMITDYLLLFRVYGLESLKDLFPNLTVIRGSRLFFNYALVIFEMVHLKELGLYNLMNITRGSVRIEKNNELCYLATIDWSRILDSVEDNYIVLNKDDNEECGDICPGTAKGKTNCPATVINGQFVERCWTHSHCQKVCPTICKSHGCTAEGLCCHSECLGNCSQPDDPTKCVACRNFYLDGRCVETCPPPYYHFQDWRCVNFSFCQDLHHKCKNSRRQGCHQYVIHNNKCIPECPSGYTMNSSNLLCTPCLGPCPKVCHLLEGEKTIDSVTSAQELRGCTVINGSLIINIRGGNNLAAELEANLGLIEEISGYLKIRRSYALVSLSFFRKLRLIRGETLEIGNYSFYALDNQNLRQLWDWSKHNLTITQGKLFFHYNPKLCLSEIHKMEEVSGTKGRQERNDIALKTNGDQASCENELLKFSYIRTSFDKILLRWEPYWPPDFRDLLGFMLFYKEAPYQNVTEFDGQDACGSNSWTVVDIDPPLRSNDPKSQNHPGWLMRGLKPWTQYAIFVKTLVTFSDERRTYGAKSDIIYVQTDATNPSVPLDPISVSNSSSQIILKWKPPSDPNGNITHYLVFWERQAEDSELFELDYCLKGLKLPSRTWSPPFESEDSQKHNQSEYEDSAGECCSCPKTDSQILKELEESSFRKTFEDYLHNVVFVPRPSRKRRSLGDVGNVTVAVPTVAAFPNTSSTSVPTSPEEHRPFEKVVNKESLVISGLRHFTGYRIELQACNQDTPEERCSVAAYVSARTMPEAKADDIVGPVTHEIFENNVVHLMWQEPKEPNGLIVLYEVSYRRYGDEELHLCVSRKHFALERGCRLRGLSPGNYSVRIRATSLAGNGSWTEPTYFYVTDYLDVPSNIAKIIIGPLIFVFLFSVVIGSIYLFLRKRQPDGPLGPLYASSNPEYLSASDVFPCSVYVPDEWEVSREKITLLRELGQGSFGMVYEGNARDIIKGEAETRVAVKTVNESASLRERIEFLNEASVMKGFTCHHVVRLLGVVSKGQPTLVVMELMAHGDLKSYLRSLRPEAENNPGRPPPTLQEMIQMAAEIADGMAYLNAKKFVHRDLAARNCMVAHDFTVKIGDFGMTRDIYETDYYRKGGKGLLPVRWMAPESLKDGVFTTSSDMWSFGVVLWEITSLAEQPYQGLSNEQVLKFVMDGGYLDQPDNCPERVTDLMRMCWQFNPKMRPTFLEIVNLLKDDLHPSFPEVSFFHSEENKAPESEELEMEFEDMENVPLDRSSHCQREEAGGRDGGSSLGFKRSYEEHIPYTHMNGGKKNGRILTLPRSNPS

[17] = target: T6, human insulin receptor (HIR); assay: HIR binding assay (method not restated)

B1: H2C-A-H6 (peptide)
peptide: VGRASGFPENFYDWFGRQLSLQSGEQ
[1]
  Cellular IC50 (M), FDC-P2 cell proliferation: 3e-07 M
[2]
  IC50: 32000 nM
[3]
  IC50: 32000 nM
[4]
  Cellular IC50 (M), MCF-7 cell proliferation: 4e-07 M

B2: RP6KK (peptide)
peptide: TFYSCLASLLTGTPQPNRGPWERCRKK
modifications: disulfide 5-24 (inferred)
[1]
  Cellular IC50 (M), FDC-P2 cell proliferation: 1e-06 M
[2]
  IC50: 180 nM
[4]
  Cellular IC50 (M), MCF-7 cell proliferation: 9e-06 M

B3: RP56 (peptide)
peptide: EGYSWLRDVLMEKQAQLKREGSVGRQE
[5]
  Cellular IC50 (M), MiaPaCa cell proliferation: 9.4e-06 M
[6]
  IC50: 60000 nM

B4: C1 (peptide)
peptide: CWARPCGDAANFYDWFVQQAS
notes: also called C1 (D112); D112
[1]
  Cellular IC50 (M), FDC-P2 cell proliferation: 4e-06 M
[7]
  IC50: 52 nM
[3]
  IC50: 42 nM

B5: RP9 (peptide)
peptide: GSLDESFYDWFERQLG
[1]
  Cellular IC50 (M), FDC-P2 cell proliferation: 2e-06 M
[3]
  IC50: 970 nM

B6: G33 (peptide)
peptide: GIISQSCPESFYDWFAGQVSDPWWCW
[8]
  IC50: 600 nM
[9]
  IC50: 600 nM
[10]
  Cellular EC50 (M), FDC-P2 cell proliferation: 2e-06 M
[11]
  Cellular EC50 (M), MCF-7 cell proliferation: 3e-07 M

B7: D112-12-RP30-IGF (peptide)
chain: ADYKDCWARPCGDAANFYDWFVQQASKKGGSGGSGGSGGSSFYSCLESLVNGGAERSDGQWEGCRAAAGAPVPYPDPLEPRPG
[12]
  IC50: 170 nM
[9]
  IC50: 170 nM
[13]
  Cellular EC50 (M), MiaPaCa cell proliferation: 2.2e-06 M
[11]
  Cellular EC50 (M), MCF-7 cell proliferation: 2.5e-07 M

B8: D112-12-D112 (peptide)
chain: ADYKDCWARPCGDAANFYDWFVQQASKKGGSGGSGGSGGSCWARPCGDAANFYDWFVQQASKKAAAGAPVPYPDPLEPRPG
[13]
  Cellular EC50 (M), MiaPaCa cell proliferation: 2.5e-06 M
[11]
  Cellular EC50 (M), MCF-7 cell proliferation: 3.5e-07 M

B9: RP30-IGF-12-D112 (peptide)
chain: ADYKDSFYSCLESLVNGGAERSDGQWEGCRGGSGGSGGSGGSCWARPCGDAANFYDWFVQQASKKAAAGAPVPYPDPLEPRPG
[9]
  IC50: 1100 nM
[11]
  Cellular EC50 (M), MCF-7 cell proliferation: 4.1e-07 M

B10: D815 (peptide)
peptide: WLDQERAWLWCEISGRGCLS
[10]
  Cellular EC50 (M), FDC-P2 cell proliferation: 3e-06 M and 1e-06 M

B11: H2CA-4-H9-IGFR (peptide)
peptide: RGAVAGFHDQFYDWFDRQVSRVHKFG
[14]
  IR/IGF-1R ratio comparison: 0.3
  ratio over background: 1.9

B12: RP6 (peptide)
peptide: TFYSCLASLLTGTPQPNRGPWERCR
[3]
  IC50: 350 nM

B13: H2CA-3-E11-IGFR (peptide)
peptide: HLADGQFHEKFYDWFERQISSRCNDC
[15]
  IGF-1R/IR ratio comparison: 2.2

B14: B6Hα-1-B5-IR (peptide)
peptide: CCTTEMVVMDARDDPFYHKLSELVTGG
[15]
  IGF-1R/IR ratio comparison: 20.5

B15: 20E2Bβ-4-G7-IR (peptide)
peptide: LQPCSGFYECIERLIGVKLSG
modifications: not fully specified; cysteine pairing not given here
[14]
  IR/IGF-1R ratio comparison: 0.1

B16: B6Hα-1-A2-IR (peptide)
peptide: RGCNDDGGKGWSDDPFYHKLSELICGG
[15]
  IGF-1R/IR ratio comparison: 14.6

B17: A6L-0-H3-IR (peptide)
peptide: YRGMLVLGRISGGAGKAASERPARIGQKVSAVNFYDWFV
[14]
  IR/IGF-1R ratio comparison: 0.1
  ratio over background: 2

B18: B6Hα-3-E9-IR (peptide)
peptide: RCEEKQAEVGPSSDPFYHKMSELLGCR
[14]
  IR/IGF-1R ratio comparison: 0.1

B19: 20C-3-F6-IGFR (peptide)
peptide: DRDFCRFYERLTALVGGQVDGGWPC
[14]
  IR/IGF-1R ratio comparison: 0.1
[15]
  IGF-1R/IR ratio comparison: 14.1

B20: 20E2B-3-C2-IGFR (peptide)
peptide: GNGDGMFYQLLSLLVGRDMHV
[14]
  IR/IGF-1R ratio comparison: 0.1
[15]
  IGF-1R/IR ratio comparison: 13.8

B21: 20C-3-A1-IGFR (peptide)
peptide: SSYGCDGFYLMLFSLGLVASQELEC
[14]
  IR/IGF-1R ratio comparison: 0.1

B22: B6Hα-3-F11-IR (peptide)
peptide: RGMKEEVLVGGSTDPFYHKLSELLQGS
[14]
  IR/IGF-1R ratio comparison: 0.1

B23: 20E2B-3-D8-IGFR (peptide)
peptide: GGTEVDFYRALERLVRGQLGL
[14]
  IR/IGF-1R ratio comparison: 0.1

B24: 20E2B-3-E8-IFGR (peptide)
peptide: LRIANLFYQRLWDLAFGGGG
[14]
  IR/IGF-1R ratio comparison: 0.1

B25: 20E2B-3-C8-IGFR (peptide)
peptide: QPAPDGFYSALMKLIGRGGVS
[14]
  IR/IGF-1R ratio comparison: 0.1

B26: 20E2B-4-F9-IGFR (peptide)
peptide: QPDHSYFYSLLQELVGSEERL
[14]
  IR/IGF-1R ratio comparison: 0.1

B27: 20E2B-3-D11-IGFR (peptide)
peptide: LGVTDGFYAALGYLIHGVGQF
[14]
  IR/IGF-1R ratio comparison: 0.1
[15]
  IGF-1R/IR ratio comparison: 7.6

B28: B6Hα-2-C7-IR (peptide)
peptide: RGIVAMVEATEVGSDHDPFYHKLSELVQGS
[15]
  IGF-1R/IR ratio comparison: 6.7

B29: NNRPγ-4-A1-IR (peptide)
peptide: IIGGFYSYFNSVLRLGT
modifications: not fully specified
[14]
  IR/IGF-1R ratio comparison: 0.2

B30: B6Hα-3-F10-IR (peptide)
peptide: GCVVEWQKWHGASDPFYHKLSELGGCS
[14]
  IR/IGF-1R ratio comparison: 0.2

B31: B6Hα-2-D6-IR (peptide)
peptide: GRTMAVMAAGGPDDPFYHKLSELVQGG
[15]
  IGF-1R/IR ratio comparison: 4.4

B32: B6Hα-2-D1-IR (peptide)
peptide: GCEVIVEEGDSADPFYHKLSELCQGS
[14]
  IR/IGF-1R ratio comparison: 0.2
[15]
  IGF-1R/IR ratio comparison: 4.2

B33: 20E2A-3-D10-IGFR (peptide)
peptide: MMVVDGFYDALHQLVVAQSLG
[14]
  IR/IGF-1R ratio comparison: 0.3

B34: B6Hα-4-G8-IR (peptide)
peptide: GGTKAVAKVGTRDDPFYHKLSELLQGS
[14]
  IR/IGF-1R ratio comparison: 0.3

B35: A6L-0-E6-IR (peptide)
peptide: YRGMLVLGRSSDGAGKVAFERPARIGQTVFAVNFYDWFV
[14]
  IR/IGF-1R ratio comparison: 0.1

B36: MBP fusion 435 (H2C-3aa-H2C-3aa-H2C) (other, not shown: large carriers; small tags and cut ends)
chain: NNNNLGIEGRISEFIEGRAQPAMAFHENFYDWFVRQVSGGSFHENFYDWFVRQVSGGSFHENFYDWFVRQVSAAAGAPVPYPDPLEPRAA
modifications: N-terminus of the given chain is fused to the C-terminus of MBP, which is not given
notes: also called RB435
[16]
  Kd: 2000 nM
[17]
  Kd: 2000 nM

B37: MBP fusion 463 (H2C-3aa-H2C) (other, not shown: large carriers; small tags and cut ends)
chain: NNNNLGIEGRISEFIEGRAQPAMAFHENFYDWFVRQVSGGSFHENFYDWFVRQVSAAAGAPVPYPDPLEPRAA
modifications: N-terminus of the given chain is fused to the C-terminus of MBP, which is not given
notes: also called RB463
[16]
  Kd: 960 nM
[17]
  Kd: 960 nM

B38: MBP fusion 464 (LF-H2C) (other, not shown: large carriers; small tags and cut ends)
chain: {MBP}-NNNNLGIEGRISEFIEGRDYKDDDDKFHENFYDWFVRQVSAAGAPVPYPDPLEPRAA
notes: LF = long FLAG; also called RB464
[16]
  Kd: 39 nM
